Data on one protein can be found in publication doi:10.1101/490516, “Molecular mechanism of the Orai channel activation” (bioRxiv, 2018).

The data set concerns the molecule itself. In words: crystal structure; 4.5 Å, molecular replacement with the closed Orai structure 4HKR; protein in NG/NM with POPC:POPE:POPG; sitting drop, 0.05 M NaCl, 0.02 M MgCl2, 0.1 M sodium citrate pH 6.5, 16%-20% PEG400, 17 °C.

B1: dOrai-P288L channel (Drosophila melanogaster Orai, amino acids 132-341, C224S, C283T, P288L) (domain or fragment, UniProt Q9U6B8 132-341, looked up)
chain: SMSQSGEDLHSPTYLSWRKLQLSRAKLKASSKTSALLSGFAMVAMVEVQLDHDTNVPPGMLIAFAICTTLLVAVHMLALMISTCILPNIETVSNLHSISLVHESPHERLHWYIETAWAFSTLLGLILFLLEIAILCWVKFYDLSPPAAWSATVVLILVMIIFMAFAIHFYRSLVSHKYEVTVSGIRELEMLKEQMEQDHLEHHNNIRNNG
notes: Orai, Drosophila melanogaster, Uniprot Q9U6B8, amino acid residues 132-341 with C224S, C283T and P288L; codons optimized for Homo sapiens; pEG-BacMam vector; PreScission site and eGFP at the C-terminus, eGFP cleaved by 3C protease on the Ni-NTA beads; No His tag is described, though Ni-NTA beads were used; it probably left with the eGFP; also called dOrai1-P288L; open Orai channel; source: …
For orientation: stoichiometry N means a count of units in the complex or per binding partner. Take B1: the “stoichiometry N” value is 6.
